# Columns and labels:
# [1] = target: H6-Smt3-Int^C(N125A)-CysTag(Alexa647)-Trx-H6; experiment: MST
Kd [1],Kd (H6-Int^N(C1A)-mCherry),koff (H6-Int^N(C1A)-mCherry),kon (H6-Int^N(C1A)-mCherry),Substance
22.4 nM,–,–,–,MBP-Int^N(C1A)-H6 (domain or fragment)
–,9.2 nM,0.00082 s⁻¹,85000 M⁻¹ s⁻¹,SBP-Int^C(N125A)-eGFP (domain or fragment)

# From article PMC7693240
